Results reported in doi:10.1101/2025.06.17.660082.

Target: Biotinylated SP16 (human) (UniProt P01009)
Experiment: SPR

Kd: 0.185 µM
Substance: Recombinant human insulin receptor/CD220 (28-944) protein, His Tag (from UniProt P06213-2 28-944)
